Test results from patent US20150224182A1 (UNIVERSITY OF VIRGINIA PATENT FOUNDATION, published 2015).
Non-standard residues stand in square brackets, D forms with d. No end group written: not given here. pT = C[C@@H](OP(=O)(O)O)[C@H](N)C(=O)O; pS = N[C@@H](COP(=O)(O)O)C(=O)O

Columns and labels:
HLA-B*0702 [1] = molecular target: T1, HLA-B*0702 (human); experiment: HLA-B7 eluate MS; ALL1; 4 means >25 copies/cell
T1 construct: also called HLA-B7

HLA-A*0201 [2] = molecular target: T2, HLA-A*0201 (human); experiment: MS of HLA-A*0201 (BB7.2) eluate; cultured melanocytes; +++ means 50-500 copies/cell
T2 construct: also called HLA-A2

HLA-A*0201 [3] = molecular target: T2, HLA-A*0201; experiment: MS of HLA-A*0201 (BB7.2) eluate; cultured melanocytes; ++ means 5-50 copies/cell
HLA-B*0702 [4] = molecular target: T1, HLA-B*0702; experiment: HLA-B7 eluate MS; AML1; 2 means 1-5 copies/cell
HLA-B*0702 [5] = molecular target: T1, HLA-B*0702; experiment: HLA-B7 eluate MS; AML1; 4 means >25 copies/cell
HLA-B*0702 [6] = molecular target: T1, HLA-B*0702; experiment: HLA-B7 eluate MS; ALL1; 2 means 1-5 copies/cell
HLA-B*0702 [7] = molecular target: T1, HLA-B*0702; experiment: HLA-B7 eluate MS; AML1; 1 means <1 copy/cell
HLA-B*0702 [8] = molecular target: T1, HLA-B*0702; experiment: HLA-B7 eluate MS; ALL1; 3 means 6-25 copies/cell
HLA B*0702 = molecular target: T3, HLA B*0702 (human); experiment: MS of peptides eluted from HLA; L/M column: L/M
T3 construct: Class I MHC molecule of the cells from which the associated phosphopeptides were detected; also called HLA-B7

HLA-A*0201 [9] = molecular target: T2, HLA-A*0201; experiment: competition with iodinated [..] for purified HLA-A*0201 plus β2M, capture on W6/32 plates
HLA-A*0201 [10] = molecular target: T2, HLA-A*0201; experiment: not described

B1: MYL9 phosphopeptide RPQRAtSNVF (peptide)
peptide: RPQRA[pT]SNVF
**Q.** Does B1 bind (HLA-B*0702 [1])?
**A.** binds

B2: ORF 17, chromosome 2 phosphopeptide RLSpSPLHFV (peptide)
peptide: RLS[pS]PLHFV
notes: also called Protein FAM134A
**Q.** Does B2 bind (HLA-A*0201 [2])?
**A.** binds

B3: Adenosine monophosphate deaminase 2 phosphopeptide RQIpSQDVKL (peptide)
peptide: RQI[pS]QDVKL
notes: also called AMPD2
**Q.** Does B3 bind (HLA-A*0201 [3])?
**A.** binds

B4: MIIP phosphopeptide RPRPHsAPSL (peptide)
peptide: RPRPH[pS]APSL
**Q.** Does B4 bind (HLA-B*0702 [4])?
**A.** binds

B5: MYL9 phosphopeptide RPQRATsNVF (peptide)
peptide: RPQRAT[pS]NVF
**Q.** Does B5 bind (HLA-B*0702 [4])?
**A.** binds

B6: RBM14 phosphopeptide FRRsPTKSSLDY (peptide)
peptide: FRR[pS]PTKSSLDY
**Q.** Does B6 bind (HLA-B*0702 [5])?
**A.** binds

B7: FAM53C phosphopeptide RPYsPPFFSL (peptide)
peptide: RPY[pS]PPFFSL
**Q.** Does B7 bind (HLA-B*0702 [6])?
**A.** binds

B8: KLF10 phosphopeptide RPVtPVSDL (peptide)
peptide: RPV[pT]PVSDL
**Q.** Does B8 bind (HLA-B*0702 [1])?
**A.** binds

B9: RBM17 phosphopeptide RPRsPTGP (peptide)
peptide: RPR[pS]PTGP
notes: also called Splicing factor 45
**Q.** Does B9 bind (HLA-B*0702 [5])?
**A.** binds

B10: SYNPO phosphopeptide RPSRSsPGL (peptide)
peptide: RPSRS[pS]PGL
**Q.** Does B10 bind (HLA-B*0702 [4])?
**A.** binds

B11: SVIL phosphopeptide VPRsPKHAHSSSL (peptide)
peptide: VPR[pS]PKHAHSSSL
notes: also called Supervillin
**Q.** Does B11 bind (HLA-B*0702 [7])?
**A.** binds

B12: RERE phosphopeptide RPPsSEFLDL (peptide)
peptide: RPP[pS]SEFLDL
**Q.** Does B12 bind (HLA-B*0702 [8])?
**A.** binds

B13: SCAP phosphopeptide RPPsPGPVL (peptide)
peptide: RPP[pS]PGPVL
**Q.** Does B13 bind (HLA-B*0702 [6])?
**A.** binds

B14: HMGN1 phosphopeptide EPKRRsARL (peptide)
peptide: EPKRR[pS]ARL
**Q.** Does B14 bind (HLA-B*0702 [7])?
**A.** binds

B15: MEF2D phosphopeptide RPAsAGAML (peptide)
peptide: RPA[pS]AGAML
**Q.** Does B15 bind (HLA-B*0702 [1])?
**A.** binds

B16: ANKRD17 phosphopeptide SPSsPSVRRQL (peptide)
peptide: SPS[pS]PSVRRQL
**Q.** Does B16 bind (HLA-B*0702 [4])?
**A.** binds

B17: PCBP2 phosphopeptide RPKPSSsPV (peptide)
peptide: RPKPSS[pS]PV
**Q.** Does B17 bind (HLA-B*0702 [6])?
**A.** binds

B18: GRM5 phosphopeptide RPRsPSPIS (peptide)
peptide: RPR[pS]PSPIS
**Q.** Does B18 bind (HLA-B*0702 [4])?
**A.** binds

B19: SRRM2 phosphopeptide RAPsPSSRM (peptide)
peptide: RAP[pS]PSSRM
**Q.** Does B19 bind (HLA-B*0702 [1])?
**A.** binds

B20: C1orf63 phosphopeptide SPSTSRSGGsSRL (peptide)
peptide: SPSTSRSGG[pS]SRL
**Q.** Does B20 bind (HLA-B*0702 [7])?
**A.** binds

B21: KIAA1310 phosphopeptide RPAsPAAKL (peptide)
peptide: RPA[pS]PAAKL
**Q.** Does B21 bind (HLA-B*0702 [6])?
**A.** binds

B22: MYC phosphopeptide KPPHsPLVL (peptide)
peptide: KPPH[pS]PLVL
**Q.** Does B22 bind (HLA-B*0702 [1])?
**A.** binds

B23: Nuclear hormone receptor TR2 phosphopeptide RQDpSTPGKVFL (peptide)
peptide: RQD[pS]TPGKVFL
notes: also called NR2C1
**Q.** Does B23 bind (HLA-A*0201 [3])?
**A.** binds

B24: SPRRsRSISL (peptide)
peptide: SPRR[pS]RSISL
**Q.** Does B24 bind (HLA B*0702)?
**A.** binds

B25: SPEN phosphopeptide KPPtPGASF (peptide)
peptide: KPP[pT]PGASF
**Q.** Does B25 bind (HLA-B*0702 [8])?
**A.** binds

B26: SON phosphopeptide FSIsPVRL (peptide)
peptide: FSI[pS]PVRL
**Q.** Does B26 bind (HLA-B*0702 [1])?
**A.** binds

B27: ZFP106 phosphopeptide SPGLARKRsL (peptide)
peptide: SPGLARKR[pS]L
**Q.** Does B27 bind (HLA-B*0702 [7])?
**A.** binds

B28: CHAF1A phosphopeptide SPRsPSTTYL (peptide)
peptide: SPR[pS]PSTTYL
**Q.** Does B28 bind (HLA-B*0702 [4])?
**A.** binds

B29: ARHGAP30 phosphopeptide RPAKsMDSL (peptide)
peptide: RPAK[pS]MDSL
**Q.** Does B29 bind (HLA-B*0702 [6])?
**A.** binds

B30: phosphopeptide RLLpSPLSSA (source protein Unknown in Table 5) (peptide)
peptide: RLL[pS]PLSSA
notes: also called RAVER1
**Q.** Does B30 bind (HLA-A*0201 [3])?
**A.** binds

B31: NFATC2 phosphopeptide KPYsPLASL (peptide)
peptide: KPY[pS]PLASL
**Q.** Does B31 bind (HLA-B*0702 [6])?
**A.** binds

B32: pS33/S37-βcat30 (doubly phosphorylated β-catenin 30-39) (peptide)
peptide: YLD[pS]GIH[pS]GA
notes: also called pS33/pS37-βcat30; pS33/37-βcat30
**Q.** How did the IC50 (HLA-A*0201 [9]) turn out when B32 was run?
**A.** 0.678 µg/mL

B33: IRS2 phosphopeptide RVApSPTSGVKR (peptide)
peptide: RVA[pS]PTSGVKR
**Q.** Does B33 bind (HLA-A*0201 [10])?
**A.** no binding

B34: KPRsPVVEL (peptide)
peptide: KPR[pS]PVVEL
**Q.** Does B34 bind (HLA B*0702)?
**A.** binds

B35: RREB1 phosphopeptide RPRANsGGVDL (peptide)
peptide: RPRAN[pS]GGVDL
**Q.** Does B35 bind (HLA-B*0702 [4])?
**A.** binds

B36: RBM14 phosphopeptide FRRsPTKSSL (peptide)
peptide: FRR[pS]PTKSSL
**Q.** Does B36 bind (HLA-B*0702 [4])?
**A.** binds

B37: β-Synemin phosphopeptide RTFpSPTYGL (peptide)
peptide: RTF[pS]PTYGL
notes: also called SYNM; pS429-β-Synemin426-434
**Q.** Does B37 bind (HLA-A*0201 [3])?
**A.** binds

B38: SETD2 phosphopeptide RPDsRLGKTEL (peptide)
peptide: RPD[pS]RLGKTEL
**Q.** Does B38 bind (HLA-B*0702 [6])?
**A.** binds

B39: AKAP13 phosphopeptide RPRsAVLL (peptide)
peptide: RPR[pS]AVLL
**Q.** Does B39 bind (HLA-B*0702 [4])?
**A.** binds

B40: RBM17 phosphopeptide RPRsPTGPsNSF (peptide)
peptide: RPR[pS]PTGP[pS]NSF
notes: as for B9
**Q.** Does B40 bind (HLA-B*0702 [4])?
**A.** binds

B41: pS33-βcat30 (YLD(pS)GIHSGA, β-catenin 30-39 with phosphoserine 33) (peptide)
peptide: YLD[pS]GIHSGA
notes: also called pS33-βcatenin30-39; YLDsGIHSGA
**Q.** Which IC50 (HLA-A*0201 [9]) does the source give for B41 here?
**A.** 0.327 µg/mL

B42: GRK2 phosphopeptide KPRsPVVEL (peptide)
peptide: KPR[pS]PVVEL
notes: also called Beta-Adrenergic receptor kinase 1
**Q.** Does B42 bind (HLA-B*0702 [6])?
**A.** binds

B43: VPS13D phosphopeptide RSLsPLLF (peptide)
peptide: RSL[pS]PLLF
**Q.** Does B43 bind (HLA-B*0702 [6])?
**A.** binds

B44: SFRS7 phosphopeptide SPRRsRSISL (peptide)
peptide: SPRR[pS]RSISL
**Q.** Does B44 bind (HLA-B*0702 [5])?
**A.** binds

B45: ZC3H14 phosphopeptide KPAsPKFIVTL (peptide)
peptide: KPA[pS]PKFIVTL
**Q.** Does B45 bind (HLA-B*0702 [4])?
**A.** binds

B46: MKI67IP phosphopeptide RRKsQVAEL (peptide)
peptide: RRK[pS]QVAEL
**Q.** Does B46 bind (HLA-B*0702 [5])?
**A.** binds

B47: phosphopeptide RPVsPFQEL (no gene name in Table 7; no database hit) (peptide)
peptide: RPV[pS]PFQEL
**Q.** Does B47 bind (HLA-B*0702 [8])?
**A.** binds

B48: GIGYF2 phosphopeptide YQRsFDEVEGV (peptide)
peptide: YQR[pS]FDEVEGV
**Q.** Does B48 bind (HLA-B*0702 [7])?
**A.** binds

B49: GIGYF2 phosphopeptide YQRsFDEVEGVF (peptide)
peptide: YQR[pS]FDEVEGVF
**Q.** Does B49 bind (HLA-B*0702 [4])?
**A.** binds

B50: RPAsARAQPGL (peptide)
peptide: RPA[pS]ARAQPGL
**Q.** Does B50 bind (HLA B*0702)?
**A.** binds

B51: IRS2 phosphopeptide RVAsPTSGVK (peptide)
peptide: RVA[pS]PTSGVK
notes: also called RVAk
**Q.** Does B51 bind (HLA-A*0201 [10])?
**A.** no binding

B52: Heat shock protein 27 (HSP27) phosphopeptide RQLpSSGVSEI (peptide)
peptide: RQL[pS]SGVSEI
notes: also called HSPB1
**Q.** Does B52 bind (HLA-A*0201 [2])?
**A.** binds
